These results are taken from patent US20250304677A1 (VIB VZW, published 2025).

Assay [1] addresses T1, mouse folate receptor alpha expressed on transfected HEK293T cells (mouse, UniProt P35846 25-232).
T1 construct: also called cell-expressed mouse FRα
Put plainly: flow cytometry on HEK293T cells overexpressing mouse FOLR1, His tag detection, PE MFI, non-linear fit. The procedure:
Data were normalized and technical replicates were plotted as mean±SD. Data were fitted by non-linear regression and the half-maximal effective concentration ^{∘}EC50) was calculated using GraphPad Prism 9 software. ^{∘}FIG. 1C and FIG. 1D) Binding affinity determination of anti-FOLR1 VHHs for native FOLR1. Mouse ^{∘}FIG. 1C) or human FOLR1 FIG. 1D) was overexpressed on HEK293T cells and binding of the anti-FOLR1 VHHs was assessed using flow cytometry. The mean fluorescence intensity ^{∘}MFI) of the phycoerythrin signal was plotted for each VHH concentration. Data were fitted by non-linear regression using GraphPad Prism 9 software. ^{∘}FIG. 1E) Determination of the competition of representative family members with folic acid ^{∘}FA) using ELISA. Mouse FOLR1 was coated on the plate and was pre-incubated with or without 100 μM FA before adding the VHHs. Data were fitted by non-linear regression using GraphPad Prism 9 software.
On the technique in general: Flow cytometry measures light scatter and fluorescence of single cells or particles in a stream.

The next assay has as its target human FOLR1/2 chimera 6 (human, UniProt P15328 25-234). Put plainly: flow cytometry, transfected HEK293T cells. The procedure:
(§1) Chimera 1 SEQ ID No. 67) and 7 ^{∘}Ch7; SEQ ID No. 73) also contain an additional residue change at a separate location. […] HEK293T cells were transfected with hFOLR1, hFOLR2, one of the hFOLR1/2 chimeric constructs ^{∘}FIG. 2B) or single residue mutants ^{∘}FIG. 2C). Binding of VHHs 2HFO19, 2HFO42, 3MFR60, and a mouse anti-FOLR1 monoclonal antibody ^{∘}mAb) was detected using a mouse anti-His tag antibody for the VHHs followed by an anti-mouse-phycoerythrin antibody. All VHHs were tested at a concentration of 200 nM and untransfected cells were used as a negative control. The colors used for the VHHs represent the different CDR3 families; blue: family 1, green: family 3, grey: family 10.
(§2) To identify the exact region in which the VHHs bind to FRα, epitope mapping experiments were performed. Since the VHHs are able to bind human FRα, but not FRβ, we generated seven human FOLR1/2 chimeric constructs where regions of human FOLR1 were replaced by the corresponding human FOLR2 ^{∘}FRβ) regions ^{∘}FIG. 2A): chimera 1 SEQ ID No. 67), chimera 2 ^{∘}SEQ ID No. 68), chimera 3 ^{∘}SEQ ID No. 69), chimera 4 ^{∘}SEQ ID No. 70), chimera 5 ^{∘}SEQ ID No. 71), chimera 6 ^{∘}SEQ ID No. 72) and chimera 7 ^{∘}SEQ ID No. 73). Three additional chimera 1 constructs were made: chimera 1a ^{∘}replacing fragment 31-40; SEQ ID No. 74), chimera 1b ^{∘}replacing fragment 41-50; SEQ ID No. 75) and chimera 1c ^{∘}replacing fragment 51-64; SEQ ID NO. 76). The constructs were transiently transfected into HEK293T cells and dose-dependent binding of the VHHs to the wild-types FRα and FRβ ^{∘}WTs) or the chimeric constructs was assessed via flow cytometry via detection of the tag ^{∘}FIG. 2B). […] Different anti-FRα VHHs were able to bind to cell-expressed FRα-FRβ chimeras to a similar level as WT FRα, with the exception of chimera 4 ^{∘}SEQ ID No. 70) where the binding was completely abolished for all VHHs.

Another assay concerns the target human FOLR1/2 chimera 5 (human, UniProt P15328 25-234). The assay can be described thus: flow cytometry, transfected HEK293T cells. The procedure:
as §1, §2

For the next assay, the target named is T2, human FOLR1/2 chimera 1 (human, UniProt P15328 25-234).
T2 construct: on transfected HEK293T cells
T2 sequence (P15328 other isoform, or with tags, fused parts or gaps mutant limits assumed): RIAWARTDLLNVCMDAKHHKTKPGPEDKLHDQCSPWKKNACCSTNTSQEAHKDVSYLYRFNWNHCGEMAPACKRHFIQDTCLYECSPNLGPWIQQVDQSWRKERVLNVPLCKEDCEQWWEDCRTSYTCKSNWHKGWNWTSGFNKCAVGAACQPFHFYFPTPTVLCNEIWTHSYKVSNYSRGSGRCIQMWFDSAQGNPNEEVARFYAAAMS
Put plainly: flow cytometry, transfected HEK293T cells. How it is done: as §1, §2

In assay [2] the target is T3, human FOLR1/2 chimera 1a (replacing fragment 31-40) (human, UniProt P15328 25-234).
T3 construct: Transiently expressed on HEK293T cells
T3 sequence (P15328 other isoform, or with tags, fused parts or gaps mutant limits assumed): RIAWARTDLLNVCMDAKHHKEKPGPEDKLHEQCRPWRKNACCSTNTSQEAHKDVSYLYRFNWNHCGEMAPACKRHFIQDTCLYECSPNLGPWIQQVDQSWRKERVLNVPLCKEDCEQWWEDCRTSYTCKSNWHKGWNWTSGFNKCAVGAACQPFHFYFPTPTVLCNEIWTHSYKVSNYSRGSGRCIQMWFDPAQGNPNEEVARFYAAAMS
Put plainly: flow cytometry, transfected HEK293T cells. The procedure: as §1, §2

In another assay the target is human FOLR1/2 chimera 3 (human, UniProt P15328 25-234). Put plainly: flow cytometry, transfected HEK293T cells. How it is done: as §1, §2
Sequence of human FOLR1/2 chimera 3 (P15328 other isoform, or with tags, fused parts or gaps mutant limits assumed): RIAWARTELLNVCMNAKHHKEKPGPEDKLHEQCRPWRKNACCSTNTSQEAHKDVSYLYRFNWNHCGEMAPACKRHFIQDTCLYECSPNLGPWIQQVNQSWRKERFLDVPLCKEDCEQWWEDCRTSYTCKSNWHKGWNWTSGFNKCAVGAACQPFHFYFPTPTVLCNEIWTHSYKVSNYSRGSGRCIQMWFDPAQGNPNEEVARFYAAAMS
For a further assay, the target named is T4, human FOLR1/2 chimera 7 (human, UniProt P15328 25-234).
T4 construct: also called Ch7
T4 sequence (P15328 other isoform, or with tags, fused parts or gaps mutant limits assumed): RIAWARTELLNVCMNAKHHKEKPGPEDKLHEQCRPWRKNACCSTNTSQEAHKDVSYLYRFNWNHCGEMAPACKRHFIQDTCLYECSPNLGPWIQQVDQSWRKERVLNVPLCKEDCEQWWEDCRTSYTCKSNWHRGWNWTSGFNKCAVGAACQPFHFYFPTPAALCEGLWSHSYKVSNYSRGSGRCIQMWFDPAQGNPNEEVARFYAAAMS
The assay can be described thus: flow cytometry, transfected HEK293T cells. How it is done:
as §1, §2

The target in the next assay is human FOLR1/2 chimera 2 (human, UniProt P15328 25-234). The assay can be described thus: flow cytometry, transfected HEK293T cells. The procedure: as §1, §2
Sequence of human FOLR1/2 chimera 2 (P15328 other isoform, or with tags, fused parts or gaps mutant limits assumed): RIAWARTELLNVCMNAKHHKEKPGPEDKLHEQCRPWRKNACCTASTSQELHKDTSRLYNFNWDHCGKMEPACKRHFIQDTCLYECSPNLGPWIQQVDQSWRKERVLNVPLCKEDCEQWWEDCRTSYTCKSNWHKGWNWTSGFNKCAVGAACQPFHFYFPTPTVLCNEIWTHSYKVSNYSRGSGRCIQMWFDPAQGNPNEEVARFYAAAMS
In assay [3] the target is T5, human FOLR1/2 chimera 1b (replacing fragment 41-50) (human, UniProt P15328 25-234).
T5 construct: Transiently expressed on HEK293T cells
T5 sequence (P15328 other isoform, or with tags, fused parts or gaps mutant limits assumed): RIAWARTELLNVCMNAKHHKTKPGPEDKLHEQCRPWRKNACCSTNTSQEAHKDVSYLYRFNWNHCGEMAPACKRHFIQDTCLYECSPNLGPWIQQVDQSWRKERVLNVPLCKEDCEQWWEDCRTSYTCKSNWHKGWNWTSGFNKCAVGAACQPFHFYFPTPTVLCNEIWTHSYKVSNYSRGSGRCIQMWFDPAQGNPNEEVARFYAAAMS
Put plainly: flow cytometry, transfected HEK293T cells. The procedure:
as §1, §2

T1 sequence (P35846 25-232 limits assumed): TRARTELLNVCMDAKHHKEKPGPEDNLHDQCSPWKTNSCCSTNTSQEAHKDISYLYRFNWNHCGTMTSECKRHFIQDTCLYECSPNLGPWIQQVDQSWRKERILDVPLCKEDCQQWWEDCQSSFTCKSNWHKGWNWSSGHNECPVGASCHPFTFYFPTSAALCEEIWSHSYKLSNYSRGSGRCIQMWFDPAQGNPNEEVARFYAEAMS
Sequence of human FOLR1/2 chimera 6 (P15328 other isoform, or with tags, fused parts or gaps mutant limits assumed): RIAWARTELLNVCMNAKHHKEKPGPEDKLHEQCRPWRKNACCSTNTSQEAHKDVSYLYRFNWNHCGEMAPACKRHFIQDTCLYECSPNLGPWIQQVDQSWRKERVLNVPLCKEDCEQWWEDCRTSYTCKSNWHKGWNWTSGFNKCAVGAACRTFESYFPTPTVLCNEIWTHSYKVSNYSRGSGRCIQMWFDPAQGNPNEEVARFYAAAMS
Sequence of human FOLR1/2 chimera 5 (P15328 other isoform, or with tags, fused parts or gaps mutant limits assumed): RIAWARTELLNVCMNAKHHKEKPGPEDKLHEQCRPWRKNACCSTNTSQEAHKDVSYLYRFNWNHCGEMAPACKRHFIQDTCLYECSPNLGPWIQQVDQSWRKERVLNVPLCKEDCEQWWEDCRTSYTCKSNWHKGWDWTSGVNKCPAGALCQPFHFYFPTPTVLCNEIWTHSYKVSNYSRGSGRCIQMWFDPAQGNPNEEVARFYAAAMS

B1: VHH 2HFO19 (family 1) (VHH)
VHH: QVQLQESGGGLVQPGGSLRVSCAASGFPFSTVYMSWVRQAPGKGLEWVSGINNDGGVIDYADSVKGRFTISRDNAKNTLYLQLNSLKPEDTALYFCARGRSFVATLSSSLRGQGTQVTVSS
notes: also called Nb19
For orientation: EC50 means the concentration needed to bring the measured effect to its halfway point. Low readings indicate greater potency, high ones weaker potency. As for B1, in assay [1], it took 1.4 nM to reach a half-maximal effect (EC50). The binding result (with human FOLR1/2 chimera 6; in the assay with human FOLR1/2 chimera 5; with human FOLR1/2 chimera 1; in assay [2]; with human FOLR1/2 chimera 3; in the assay with human FOLR1/2 chimera 7) was “binds” in each case. For the same molecule, the binding result (in the assay with human FOLR1/2 chimera 2; in [3]) was “binds” throughout.

B2: VHH 3MFR60 (family 10) (VHH)
VHH: QVQLQESGGGLVQAGGSLRVSCAASGIIFSMNGMGWFRQAPGKQRELVASITSGGSTKYADSVKGRFTISRDNAKNTVYLQMNSLKPEDTAVYYCNIQFGSRWSTYWGQGTQVTVSS
B2 had an EC50 in [1] of 1.5 nM. In addition, the binding result (with human FOLR1/2 chimera 6; with human FOLR1/2 chimera 5; with human FOLR1/2 chimera 1; in assay [2]; in the assay with human FOLR1/2 chimera 3; with human FOLR1/2 chimera 7) was “binds” each time. Besides, the binding result (with human FOLR1/2 chimera 2; in assay [3]) was “binds” in each case.

B3: VHH 2HFO42 (family 3) (VHH)
VHH: QVQLQESGGGLVQAGGSLRLSCAASGSGFSGMIMGWYRQVPGKQRELVATVTSHGTTNYADSVKGRFTISRDNAKNTVLLQMNSLKPEDTAVYYCNAHFPGIYWGKGTQVTVSS
notes: also called 2HF042; Nb42
The molecule B3 returned an EC50 in assay [1] of 1.2 nM. In addition, the binding result (in the assay with human FOLR1/2 chimera 6; with human FOLR1/2 chimera 5; in the assay with human FOLR1/2 chimera 1; in assay [2]; with human FOLR1/2 chimera 3; with human FOLR1/2 chimera 7) was “binds” throughout. Moreover, the binding result (with human FOLR1/2 chimera 2; in assay [3]) was “binds” each time.
